This assay concerns the target T1, chemokine receptor 1 (CCR1) (UniProt P56482 1-355).
T1 chain: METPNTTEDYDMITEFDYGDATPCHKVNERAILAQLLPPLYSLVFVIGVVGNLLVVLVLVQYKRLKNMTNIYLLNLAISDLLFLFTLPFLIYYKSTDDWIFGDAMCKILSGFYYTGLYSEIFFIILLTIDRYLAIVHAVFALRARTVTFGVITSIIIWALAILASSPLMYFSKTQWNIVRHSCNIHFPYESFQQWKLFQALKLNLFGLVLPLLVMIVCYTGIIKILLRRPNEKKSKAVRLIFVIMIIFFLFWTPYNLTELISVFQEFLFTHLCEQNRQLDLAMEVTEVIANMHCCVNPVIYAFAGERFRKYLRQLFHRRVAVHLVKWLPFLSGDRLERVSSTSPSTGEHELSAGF
In words: competition binding.

9 molecules from patent US20090082262A1 (published 2009) can be followed below.

*: point of attachment. Nonanoyl = CCCCCCCCC(=O)*

In general, IC50 refers to the concentration that inhibits the measured activity by half.

B1: RANTES (ligand)
chain: SPYSSDTTPCCFAYIARPLPRAHIKEYFYTSGKCSNPAVVFVTRKNRQVCANPEKKWVREYINSLEMS
Molecule B1 yielded an IC50 of 0.166 nM.

B2: HCC-1[10-74] (ligand)
chain: PYHPSECCFTYTTYKIPRQRIMDYYETNSQCSKPGIVFITKRGHSVCTNPSDKWVQDYIKDMKEN
In the case of B2, the half-maximal inhibitory concentration (IC50) amounted to 0.182 nM.

B3: HCC-1[8-74] (ligand)
chain: RGPYHPSECCFTYTTYKIPRQRIMDYYETNSQCSKPGIVFITKRGHSVCTNPSDKWVQDYIKDMKEN
Take B3: the concentration for half-maximal inhibition (IC50) worked out at 2.42 nM.

B4: NNY-HCC-1[10-74] (ligand)
chain: Nonanoyl-PYHPSECCFTYTTYKIPRQRIMDYYETNSQCSKPGIVFITKRGHSVCTNPSDKWVQDYIKDMKEN
modifications: ends and bridges not checked
On to B4, for which the concentration for half-maximal inhibition (IC50) was 0.0843 nM.

B5: HCC-1[11-74] (ligand)
chain: YHPSECCFTYTTYKIPRQRIMDYYETNSQCSKPGIVFITKRGHSVCTNPSDKWVQDYIKDMKEN
In the case of B5, the 50% inhibitory concentration (IC50) worked out at 5.07 nM.

B6: PHC-1 (HCC-1[9-74]) (ligand)
chain: GPYHPSECCFTYTTYKIPRQRIMDYYETNSQCSKPGIVFITKRGHSVCTNPSDKWVQDYIKDMKEN
Regarding B6, the IC50 was found to be 0.104 nM.

B7: HCC-1[7-74] (ligand)
chain: SRGPYHPSECCFTYTTYKIPRQRIMDYYETNSQCSKPGIVFITKRGHSVCTNPSDKWVQDYIKDMKEN
B7: the IC50 came out at 4.36 nM.

B8: HCC-1[12-74] (protein)
chain: HPSECCFTYTTYKIPRQRIMDYYETNSQCSKPGIVFITKRGHSVCTNPSDKWVQDYIKDMKEN
Consider B8, for which the IC50 came to 50.1 nM.

B9: HCC-1, residues 6-74 (ligand)
chain: SSRGPYHPSECCFTYTTYKIPRQRIMDYYETNSQCSKPGIVFITKRGHSVCTNPSDKWVQDYIKDMKEN
On to B9, for which the 50% inhibitory concentration (IC50) was 6.52 nM.
